{"source": "patent US20240342190A1", "about": "“METHODS FOR REDUCING ISCHEMIA-REPERFUSION INJURIES” (BioMimetix JV, LLC, priority 2023, published 2024)", "molecules": {"B1": {"name": "tissue plasminogen activator (protein, UniProt P00750 36-562, looked up)", "Tissue-type plasminogen …": "SYQVICRDEKTQMIYQQHQSWLRPVLRSNRVEYCWCNSGRAQCHSVPVKSCSEPRCFNGGTCQQALYFSDFVCQCPEGFAGKCCEIDTRATCYEDQGISYRGTWSTAESGAECTNWNSSALAQKPYSGRRPDAIRLGLGNHNYCRNPDRDSKPWCYVFKAGKYSSEFCSTPACSEGNSDCYFGNGSAYRGTHSLTESGASCLPWNSMILIGKVYTAQNPSAQALGLGKHNYCRNPDGDAKPWCHVLKNRRLTWEYCDVPSCSTCGLRQYSQPQFRIKGGLFADIASHPWQAAIFAKHRRSPGERFLCGGILISSCWILSAAHCFQERFPPHHLTVILGRTYRVVPGEEEQKFEVEKYIVHKEFDDDTYDNDIALLQLKSDSSRCAQESSVVRTVCLPPADLQLPDWTECELSGYGKHEALSPFYSERLKEAHVRLYPSSRCTSQHLLNRTVTDNMLCAGDTRSGGPQANLHDACQGDSGGPLVCLNDGRMTLVGIISWGLGCGQKDVPGVYTKVTNYLDWIRDNMRP", "notes": "standard thrombolytic therapy"}}, "assay": "Experiment 8: interaction of BMX-001 with t-PA (blood clot dissolution)", "set-up": "species or system rat", "conditions": "rat blood clots; 1 mg/ml t-PA with or without 50 μg/ml BMX-001; 37° C. for 30 minutes", "procedure": "Fresh arterial blood samples were collected from young male rats and distributed into 21 pre-weighed centrifuge tubes. After sitting at 37° C. for 3 hours, the blood clots were formed. The supernatant was removed from these tubes and then the tubes with blood clots were weighed. The weight of the blood clot was calculated (=the tube with blood clot-pre-weighed tube). Then, 1 ml saline, t-PA (1 mg/ml) or t-PA (1 mg/ml) plus BMX-001 (50 μg/ml) were added (n=7 for each group) and tubes placed in 37° C. dry incubator for 3 hours. The liquids were then removed from the tubes. The tubes with remaining blood clots were weighed again. The percentage of blood clot dissolved by t-PA was calculated."}
{"molecule": "B1", "values": [{"measurement": "Percentage of blood clot dissolved", "value": "44.77±25.77", "unit": "%"}]}
